Experimental data from publication PMC2877007.

Target: Epidermal Growth Factor Receptor (EGFR) (human (endogenous in A431)) (UniProt P00533)
Test: parameter fitting of an ODE model (PottersWheel) and a stochastic simulation (SPS) to immunogold electron microscopy counts; estimated constants; adaptor immunogold label on plasma membrane sheets of A431 cells over a time course of EGF, 20 nM EGF in the model; docking rate multiplied by a scaling factor f and adjusted to match the data

Stat5 (from UniProt P42229 1-794) (natural protein)
Kd: 2.13 µM
koff: 11.7 s⁻¹
kon: 5.5e+06 M⁻¹ s⁻¹
